The labels stand for the following.
B1: RIPK4 (parent)
chain: VIDLFDEQGLSALHLAAQGRHAQT
B2: MFF (parent)
chain: MAEISRIQYEMEYTEGISQRMRVP
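Also: lentivirally expressed fusions sorted by FACS into six bins by GFP to DsRed ratio, PSI derived from sequencing read proportions per bin multiplied by bin number.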

The first data set covers variants of B1. In words: protein stability index of a GFP-peptide fusion (GPS, HEK-293T) (PSI 1-6); higher = more stable. To be noted: c terminus: a fixed tail appended.
Take WIDLFDEQGLSALHLAAQGRHAQT [V1W]: the protein stability index worked out at 2.76. On to KIDLFDEQGLSALHLAAQGRHAQT [V1K], for which the protein stability index was 3.92.

Consider MIDLFDEQGLSALHLAAQGRHAQT [V1M], for which the protein stability index amounted to 3.37. Still for that read-out and setting: the same measure for AIDLFDEQGLSALHLAAQGRHAQT [V1A]: 3.82. With YIDLFDEQGLSALHLAAQGRHAQT [V1Y], the protein stability index came out at 2.16. As to CIDLFDEQGLSALHLAAQGRHAQT [V1C], the protein stability index worked out at 2.88.

FIDLFDEQGLSALHLAAQGRHAQT [V1F]: the protein stability index was 1.88.

Regarding DIDLFDEQGLSALHLAAQGRHAQT [V1D], the protein stability index worked out at 4.32. As to GIDLFDEQGLSALHLAAQGRHAQT [V1G], the protein stability index came to 3.61. Still for that read-out and setting: the same measure for LIDLFDEQGLSALHLAAQGRHAQT [V1L]: 2.7; for PIDLFDEQGLSALHLAAQGRHAQT [V1P]: 3.72.

As for RIDLFDEQGLSALHLAAQGRHAQT [V1R], the protein stability index came out at 3.41. For SIDLFDEQGLSALHLAAQGRHAQT [V1S], the protein stability index is 3.62.

Take TIDLFDEQGLSALHLAAQGRHAQT [V1T]: the protein stability index turned out to be 3.82. On the same count and under the same terms, the same measure for QIDLFDEQGLSALHLAAQGRHAQT [V1Q]: 4.09; for HIDLFDEQGLSALHLAAQGRHAQT [V1H]: 3.45. Regarding IIDLFDEQGLSALHLAAQGRHAQT [V1I], the protein stability index came to 2.43. For the variant EIDLFDEQGLSALHLAAQGRHAQT [V1E], the protein stability index stood at 4.09. For the variant NIDLFDEQGLSALHLAAQGRHAQT [V1N], the protein stability index worked out at 3.7.

With VIKLFDEQGLSALHLAAQGRHAQT [D3K], the protein stability index was 2.31. For the variant VISLFDEQGLSALHLAAQGRHAQT [D3S], the protein stability index is 2.69.

For VIILFDEQGLSALHLAAQGRHAQT [D3I], the protein stability index came to 2.71. Same read-out and setting: in the case of VIQLFDEQGLSALHLAAQGRHAQT [D3Q] it was 2.46. Consider VIMLFDEQGLSALHLAAQGRHAQT [D3M], for which the protein stability index amounted to 1.36. As for VIWLFDEQGLSALHLAAQGRHAQT [D3W], the protein stability index turned out to be 2.95. As for VICLFDEQGLSALHLAAQGRHAQT [D3C], the protein stability index was 2.25. As for VIALFDEQGLSALHLAAQGRHAQT [D3A], the protein stability index is 1.79. VIVLFDEQGLSALHLAAQGRHAQT [D3V]: the protein stability index worked out at 1.58.

Consider VIRLFDEQGLSALHLAAQGRHAQT [D3R], for which the protein stability index amounted to 2.34. For VINLFDEQGLSALHLAAQGRHAQT [D3N], the protein stability index came out at 2.7. As for VIPLFDEQGLSALHLAAQGRHAQT [D3P], the protein stability index was determined as 2.81.

In the case of VIHLFDEQGLSALHLAAQGRHAQT [D3H], the protein stability index was found to be 1.68. For the variant VIGLFDEQGLSALHLAAQGRHAQT [D3G], the protein stability index worked out at 2.58.

On to VILLFDEQGLSALHLAAQGRHAQT [D3L], for which the protein stability index was 1.89. VIELFDEQGLSALHLAAQGRHAQT [D3E]: the protein stability index came to 2.66. With VIFLFDEQGLSALHLAAQGRHAQT [D3F], the protein stability index was 3.19.

For VITLFDEQGLSALHLAAQGRHAQT [D3T], the protein stability index stood at 2.17. For the variant VIYLFDEQGLSALHLAAQGRHAQT [D3Y], the protein stability index stood at 1.1. Still for that read-out and setting: in the case of VHDLFDEQGLSALHLAAQGRHAQT [I2H] it was 4.22; in that of VDDLFDEQGLSALHLAAQGRHAQT [I2D], 4.21.

As for VRDLFDEQGLSALHLAAQGRHAQT [I2R], the protein stability index amounted to 3.24. For the variant VWDLFDEQGLSALHLAAQGRHAQT [I2W], the protein stability index came out at 2.36.

VLDLFDEQGLSALHLAAQGRHAQT [I2L]: the protein stability index was 2.25. On to VTDLFDEQGLSALHLAAQGRHAQT [I2T], for which the protein stability index is 3.64. On to VYDLFDEQGLSALHLAAQGRHAQT [I2Y], for which the protein stability index was 2.97. Same read-out and setting: in the case of VNDLFDEQGLSALHLAAQGRHAQT [I2N] it was 3.79; in that of VGDLFDEQGLSALHLAAQGRHAQT [I2G], 3.41. As to VQDLFDEQGLSALHLAAQGRHAQT [I2Q], the protein stability index stood at 3.76. Turning to VPDLFDEQGLSALHLAAQGRHAQT [I2P], the protein stability index worked out at 3.66. Turning to VEDLFDEQGLSALHLAAQGRHAQT [I2E], the protein stability index stood at 4.42. Same read-out and setting: the same measure for VADLFDEQGLSALHLAAQGRHAQT [I2A]: 3.92; for VFDLFDEQGLSALHLAAQGRHAQT [I2F]: 2.42; for VKDLFDEQGLSALHLAAQGRHAQT [I2K]: 3.89.

For VSDLFDEQGLSALHLAAQGRHAQT [I2S], the protein stability index is 3.88. As to VCDLFDEQGLSALHLAAQGRHAQT [I2C], the protein stability index came out at 3.4. On to VMDLFDEQGLSALHLAAQGRHAQT [I2M], for which the protein stability index amounted to 3.26.

Regarding VVDLFDEQGLSALHLAAQGRHAQT [I2V], the protein stability index was 3.67. Turning to VIDDFDEQGLSALHLAAQGRHAQT [L4D], the protein stability index is 4.18. Same read-out and setting: in the case of VIDFFDEQGLSALHLAAQGRHAQT [L4F] it was 2.66; in that of VIDCFDEQGLSALHLAAQGRHAQT [L4C], 2.76; in that of VIDEFDEQGLSALHLAAQGRHAQT [L4E], 4.29. On the same count and under the same terms, in the case of VIDAFDEQGLSALHLAAQGRHAQT [L4A] it was 3.72.

The variants in a further data set derive from B2. Described as above. As to conditions: c terminus: a fixed tail appended.
As to MAEISRIQYEMEYGEGISQRMRVP [T14G], the protein stability index was determined as 2.75.

For MAEISRIQYEMEYAEGISQRMRVP [T14A], the protein stability index was 2.68. In the case of MAEISRIQYEMEYREGISQRMRVP [T14R], the protein stability index was found to be 2.35. For MAEISRIQYEMEYKEGISQRMRVP [T14K], the protein stability index stood at 3.28.

With MAEISRIQYEMEYTEGISGRMRVP [Q19G], the protein stability index was found to be 2.81. The same measure, in the same setting: the same measure for MAEISRIQYEMEYTEGISCRMRVP [Q19C]: 2.41; for MAEISRIQYEMEYTEGISTRMRVP [Q19T]: 2.66; for MAEISRIQYEMEYTEGISKRMRVP [Q19K]: 2.44. MAEISRIQYEMEYTEGISLRMRVP [Q19L]: the protein stability index turned out to be 1.41. On the same count and under the same terms, in the case of MAEISRIQYEMEYTEGISRRMRVP [Q19R] it was 2.59. Turning to MAEIDRIQYEMEYTEGISQRMRVP [S5D], the protein stability index came to 3.39. With MAEIWRIQYEMEYTEGISQRMRVP [S5W], the protein stability index turned out to be 2.46. As for MAEIKRIQYEMEYTEGISQRMRVP [S5K], the protein stability index was found to be 2.17. For the variant MAEIARIQYEMEYTEGISQRMRVP [S5A], the protein stability index is 1.72.

MAEIFRIQYEMEYTEGISQRMRVP [S5F]: the protein stability index was determined as 1.71. Turning to MAEISRIQYGMEYTEGISQRMRVP [E10G], the protein stability index was found to be 2.67. Consider MAEISRIQYKMEYTEGISQRMRVP [E10K], for which the protein stability index came to 2.66.

As for MAEISRIQYPMEYTEGISQRMRVP [E10P], the protein stability index was 3.04.

As to MAEISRIQYCMEYTEGISQRMRVP [E10C], the protein stability index was 1.99.

For MAEISRIQYHMEYTEGISQRMRVP [E10H], the protein stability index was 2.42. As for MAEISTIQYEMEYTEGISQRMRVP [R6T], the protein stability index is 2.93.

As for MAEISFIQYEMEYTEGISQRMRVP [R6F], the protein stability index was 2.06. The same measure, in the same setting: the same measure for MAEISAIQYEMEYTEGISQRMRVP [R6A]: 3.16. As for MAEISGIQYEMEYTEGISQRMRVP [R6G], the protein stability index stood at 3.36. Turning to MAEISRIQYEMEYTEGISQRMRVE [P24E], the protein stability index stood at 2.74. Turning to MAEISRIQYEMEYTEGISQRMRVT [P24T], the protein stability index was found to be 3.42. As for MAEISRIQYEMEYTEGISQRMRVY [P24Y], the protein stability index stood at 1.85. Same read-out and setting: in the case of MAEISRIQYEMEYTEGISQRMRVM [P24M] it was 2.21.

On to MAEISRIQYEMEYTEGISQRMRVC [P24C], for which the protein stability index came out at 1.93. On the same count and under the same terms, in the case of MAEISRIQYEMEYTEGISQRMRVQ [P24Q] it was 2.75; in that of MAEISRIQYEMEYTEGISQRMRVN [P24N], 2.56. MAEISRIQYEMEYTEGISQRMRVL [P24L]: the protein stability index stood at 2.16.

Values taken from the supplement of paper PMC10567573.
